Source: US20130230533A1 (Regeneron, published 2013)
Changes are numbered by the printed parent chain. Numbers in names are those of the source. Each block holds one binder with its values, some of them ahead of it.

Tests used:
[1] = target: T1, biotinylated dimeric human CD48 protein expressed as a fusion with mouse IgG2a Fc (human, biotinylated); test: competition ELISA; blocks bio-hCD48-mFc binding to coated h2B4-mFc
T1 construct: also called bio-hCD48-mFc; Dimeric human CD48-mFc
T1 chain: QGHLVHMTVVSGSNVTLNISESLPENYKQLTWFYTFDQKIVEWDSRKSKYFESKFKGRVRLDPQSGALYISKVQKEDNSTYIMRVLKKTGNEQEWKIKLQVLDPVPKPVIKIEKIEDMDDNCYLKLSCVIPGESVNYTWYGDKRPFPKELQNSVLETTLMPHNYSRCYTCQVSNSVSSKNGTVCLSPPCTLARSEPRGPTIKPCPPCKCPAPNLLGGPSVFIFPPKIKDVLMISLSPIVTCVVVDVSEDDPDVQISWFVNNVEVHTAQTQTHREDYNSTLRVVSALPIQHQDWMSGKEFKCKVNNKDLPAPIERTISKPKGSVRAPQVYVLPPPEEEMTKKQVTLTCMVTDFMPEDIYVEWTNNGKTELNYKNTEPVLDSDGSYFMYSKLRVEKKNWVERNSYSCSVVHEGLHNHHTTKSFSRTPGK
Protocol: (§1) The ability of human anti-CD48 monoclonal antibodies to block human CD48 and monkey CD48 binding to the human cognate ligand, human 2B4, was measured using a competition sandwich ELISA (Table 8). Constant amounts of biotinylated dimeric human CD48 protein expressed as a fusion with mouse IgG2a Fc (“bio-hCD48-mFc” [SEQ ID NO: 387]) or monomeric monkey CD48 expressed with a tag consisting of 2 myc and one 6-His epitopes (“mfCD48-mmH” [SEQ ID NO: 386]) were separately titrated with varying amounts of antibodies. These antibody-protein complexes were incubated (1 hr, 25° C.) before being transferred to microtiter plates coated with a dimeric construct expressing the human 2B4 receptor fused to a either human IgG1 (h2B4-hFc [R&D Systems, Inc., Minneapolis, Minn., Cat. No. 1039-2B]) or mouse IgG2a Fc (h2B4-mFc [SEQ ID NO: 389). After a 1 hr at 25° C. the wells were washed and bound human CD48 was detected with streptavidin conjugated with horse-radish peroxidase (HRP), and monkey CD48 was detected with an HRP conjugated anti-myc polyclonal antibody. The ELISA was developed with a TMB solution to produce a colorimetric reaction and quenched with sulfuric acid before reading absorbance at 450 nm on a Victor X5 plate reader. Sigmoidal dose response curves were fit to the data using Prism™ software. […] (Tables 8 and 9, NB=no binding observed)

[2] = target: T2, monomeric monkey CD48 expressed with a tag consisting of 2 myc and one 6-His epitopes (monkey); test: competition ELISA; blocks mfCD48-mmH binding to coated h2B4-mFc
T2 construct: also called mfCD48-mmH; Monomeric monkey CD48-mmH
T2 chain: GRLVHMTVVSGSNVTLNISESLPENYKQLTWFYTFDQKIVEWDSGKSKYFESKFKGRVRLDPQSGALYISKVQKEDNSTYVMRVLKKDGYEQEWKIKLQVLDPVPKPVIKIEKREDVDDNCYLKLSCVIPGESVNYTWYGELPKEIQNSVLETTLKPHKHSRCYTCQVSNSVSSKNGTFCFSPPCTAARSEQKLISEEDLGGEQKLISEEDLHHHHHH
Protocol: as §1

[3] = target: T3, human CD48 (on primary human peripheral blood mononuclear cells) (human, UniProt P09326 27-220); test: cell-based or functional assay
T3 sequence: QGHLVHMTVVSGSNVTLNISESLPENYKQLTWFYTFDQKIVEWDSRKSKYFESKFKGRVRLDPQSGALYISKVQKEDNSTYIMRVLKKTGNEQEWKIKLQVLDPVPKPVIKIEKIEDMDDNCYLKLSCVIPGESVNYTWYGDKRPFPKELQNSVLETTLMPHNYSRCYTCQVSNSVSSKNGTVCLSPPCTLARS

[4] = target: T3, human CD48 (on primary human peripheral …); test: cell-based or functional assay; remark: listed apart in the source
[5] = target: T3, human CD48 (on primary human peripheral …); test: cell-based or functional assay; remark: listed apart in the source

B1: H4H1774P (antibody, human IgG4, V domains shown)
VH: QVQLVESGGGVVQPGRSLRLSCAASGFTFSNYGMHWVRQAPGKGLEWVAVIWYDESSKYYTDSVKGRFTISRDNSQNTLYLQMTSLRAEDTAVYYCARDRWTYSHYFEYWGQGTLVTVSS
VL: DIQMTQSPSSVSASVGDRVTITCRASQGISSWVAWYQQKPGKAPKLLIYAASSLQSGVPSRFSGSGSGTDFTLTISSLQPEDFATYYCQQANSFPRTFGQGTKVEIK
notes: Human IgG4 Fc (H4H)
IC50 [1]: 25 pM
IC50 [2]: 16 pM
Inhibition of IFN-gamma Release IC50; Donor 6 [3]: 2.5e-11 Molar
Inhibition of IFN-gamma Release IC50; Donor 7 [3]: 9.5e-12 Molar

B2: H4H1778P (antibody, human IgG4, V domains shown)
VH: B1 VH
VL: B1 VL
notes: Human IgG4 Fc (H4H)
IC50 [1]: 56 pM
IC50 [2]: 8.4 pM
Inhibition of IFN-gamma Release IC50; Donor 6 [3]: 9.8e-12 Molar

Now from value to binder:

% Blockade of IFNγ release, MLR; D2 [4]: 60%
% Blockade of IFNγ release, MLR; D3 [4]: 39%
% Blockade of IFNγ release, MLR; D5 [4]: 43%
% Blockade of IFNγ release, MLR; D6 [4]: 60%
% Blockade of IFNγ release, MLR; D7 [4]: 51%
% Blockade of IFNγ release, MLR; D8 [4]: 40%
Inhibition of IFN-gamma Release IC50; Donor 9 [5]: 5.7e-12 Molar
Inhibition of IFN-gamma Release IC50; Donor 11 [5]: 1.9e-11 Molar
B3: H4H1769Pa (antibody, human IgG4, V domains shown)
VH: QVQLVQSGAEVKKPGASVKVSCKTSGYTFAGYGITWVRQAPGRGLEWMGWVSAYNGDTDYAQSLQGRVTMTTDTSTSTAYMELRSLRSDDTAMYYCARDRYSSSSGYFDYWGQGTLVTVSS
VL: B1 VL with V33L, Y36H, L46V, Q55H, D70E, S93T, R96Y, V104L

IC50 [1]: 20 pM
IC50 [2]: 22 pM
B4: H4H1770P (antibody, human IgG4, V domains shown)
VH: QVQLVQSGAEVKKPGAAVKVSCKASGYTFTAYGISWVRQAPGQGLEWMGWISAYDGDTNNAQKFQGRVTMTTDTSSSTAYMELRSLGSDDTAVYYCARDRYSSSSGYFDYWGQGTLVTVSS
VL: B1 VL with G28D, V33L, Y36S, L46A, R96Y, V104L
notes: Human IgG4 Fc (H4H)

IC50 [1]: 18 pM
IC50 [2]: 3.4 pM
B5: H4H1713N (antibody, human IgG4, V domains shown)
VH: QVQLVQSGAEVKKPGASVKVSCKASGHTFTNYYIHWVRQAPGQGLEWMGITNPNDGNTRYAQKFQGRISMTWDTSTSTVFMELSSLKSEDTAVYYCAGLRYWFFDLWGRGTPVTVSS
VL: B1 VL with G28D, V33L, K45N, Y49F, A84G, A91T, N92D, S93N, K107N
notes: Human IgG4 Fc (H4H) form of 1713N
